The target in this assay is T1, Hsp72 C-terminal tracer (Fam-…) (human).
T1 chain: GSGPTIEEVD
Nature of the assay: fluorescence polarisation. The following applies: remark: other sources report otherwise. For orientation: Fluorescence polarisation rises when a labelled molecule tumbles more slowly, as on binding a larger partner.

The term Kd denotes the equilibrium constant for the complex coming apart. Low values mean higher affinity, high ones lower affinity.

Some results are limits rather than exact numbers.

B1: Human FKBP51 (51-kDa FK506-binding protein), Q13451 1-457 (natural protein)
chain: MTTDEGAKNNEESPTATVAEQGEDITSKKDRGVLKIVKRVGNGEETPMIGDKVYVHYKGKLSNGKKFDSSHDRNEPFVFSLGKGQVIKAWDIGVATMKKGEICHLLCKPEYAYGSAGSLPKIPSNATLFFEIELLDFKGEDLFEDGGIIRRTKRKGEGYSNPNEGATVEIHLEGRCGGRMFDCRDVAFTVGEGEDHDIPIGIDKALEKMQREEQCILYLGPRYGFGEAGKPKFGIEPNAELIYEVTLKSFEKAKESWEMDTKEKLEQAAIVKEKGTVYFKGGKYMQAVIQYGKIVSWLEMEYGLSEKESKASESFLLAAFLNLAMCYLKLREYTKAVECCDKALGLDSANEKGLYRRGEAQLLMNEFESAKGDFEKVLEVNPQNKAARLQISMCQKKAKEHNERDRRIYANMFKKFAEQDAKEEANKAMGKKTSEGVTNEKGTDSQAMEEEKPEGHV
modifications: here or on the partner: 5-carboxyfluorescein (5-Fam) on the N-terminus via a 6-carbon spacer (aminohexanoic acid)
B1 showed a Kd greater than 75 µM.

The values are drawn from PMC4714923.
